From the supplement of paper PMC9170038

Tested on: MS2 coat protein
Experiment: apparent KD of MS2 coat protein; higher = weaker reporter binding
Settings: Eterna round: R107
In short: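 Each design's apparent KD comes from the median of binding-curve fits to its normalised clusters. Those clusters carried RNA switches transcribed on-chip from Illumina sequencing clusters. SNAP-549-labelled MS2 coat protein was titrated onto them in twofold steps (0.7 or 1.5 nM to 3 µM; per step 0.8–1.5 h down to 10–20 min). Conditions were 100 mM Tris-HCl pH 7.5, 80 mM KCl, 4 mM MgCl2, without or with constant ligand.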

[1] = input ligand: theophylline 2 mM
[2] = input ligand: tryptophan 2.4 mM
[3] = input ligand: theophylline 20 uM

Sequence	apparent KD of MS2 coat protein (input ligand: arginine 13.2 mM)	apparent KD of MS2 coat protein (input ligand: none)	apparent KD of MS2 coat protein [1]	apparent KD of MS2 coat protein [2]	apparent KD of MS2 coat protein [3]
UAUCCACAUGAGGAUCACCCAUGUUAGGAAGGAGCGGUGAAUGAACCAGGUAGGUCGCCUAGCUGAGGACCGUCGAUGGAUUCGU [Exclusion - Arginine A (Freestyle 16)]	13.7 nM	27.3 nM	28.2 nM	18.4 nM	
CAAGAAUGACGUACAGAUAACAAUAACGAUACCAGUACAUCAUUAUACCCUUGGCAGCGUUUCACAUGAGGAUCACCCAUGUACA [theeternabot_exclusion_MS2_Theo_A_14]	15.4 nM			17.6 nM	20.1 nM
AUACAUGAGGAUCACCCAUGUGAUGGCCGGCGAGGACCGGUACGGCCGCCACUCGUGAUCCGUCCUGAGAGCAAAGCCCUCAGCA [Onedti]	17.3 nM		237 nM		287 nM
GCAUCCUAGUCGGCCGCCACUGCAUGUAGUUUUGCUACAUGGAAACAUGAGGAUCACCCAUGUAGCAGGACCGGGACUAGGAUGC [(Trp1)-(TM)''-(TM)'-(Ms2)-(Trp2)_Design7]	30.7 nM		36 nM		36.2 nM
UCUUACUUGGUAGAUACCAGCGUGUUAUCUUUCUUUUGACAUGAGGAUCACCCAUGUAUAUGCCCUUGGCAGCUGCAUAGUGUGU [#02 Same State - Theophylline B]	26.9 nM			30.1 nM	41.7 nM
AUUAUAGUUUAUAACGAAGUUGAUACAGAAGGAGCGUGAAUAAUCACAGGUAGGUCGCUGAUAAUACAUGAGGAUCACCCAUGUU [JR_Nu_SSArginiA_Sub018]	20.7 nM	20.4 nM	18.9 nM	19.4 nM	31.9 nM
GCUAGGUCUACGGCCGCCACUAGACGUGGGUAAAACAUGAGGAUCACCCAUGUGCUACGGGCGAAUAGGACCGGGUAGACCUAGC [SSTB NP+V+V2 #15 +-Same Structure]	60.1 nM	368 nM	711 nM	85.4 nM	529 nM
GGCGACAUGAGGAUCACCCAUGUGACACCUCGAGGACCGGUACGGCCGCCACUCGUAACCUGCACUAUAGCUACCACGAUUAGCC [theeternabot_sameState_MS2_Trp_A_44]	84.3 nM		233 nM		238 nM
CAAUCUACCACCGGCCUACUGUACACUCGCCGAGGACCGGUACGGCCGCCACUCGACGUUCGACAUGAGGAUCACCCAUGUGGGU [theeternabot_exclusion_MS2_Trp_A_14]	80.1 nM		289 nM		200 nM
UGGUAUGUAGGAAGGAGCGCAUACUUCACAUGAGGAUCACCCAUGUCAAGACGUGAGUCAGUGCAGGUAGGUCGCCUAGUUAUGA [Same State - Arginine B (Freestyle 21)]	31.2 nM	42.9 nM	36.1 nM	33.7 nM	49.1 nM
AUAACAUGAGGAUCACCCAUGUAUUGGUUACGAGGACCGGUACGGCCGCCACUCGUAUUAUAGUGGUAUUUUGUUUAUAUGAUAA [JR_Nu_TrtptoA_Sub019]	14.8 nM		18.4 nM		20 nM
AUGUCGUUGAAUACAGCGGCAUGGUGUGAUACCAGAAUGAUCAAAUUCCCUUGGCAGCAUCACAUGAGGAUCACCCAUGUUAAGG [SSTheo A #17]	27.5 nM			46.4 nM	50 nM
UCGCUCGCCGUAAGGCGAGCGAGUUGCGAUACCAGCCCGGAAACGGGCCCUUGGCAGCGCACAUGAGGAUCACCCAUGUCAUGUU [#1 Exclusion - Theophylline A Attempt #5 (HarryS)]	18.3 nM	19.5 nM	24.3 nM	19.7 nM	35.1 nM
GUAUAGUCUCGAAGGAGCGUCACAUGAGGAUCACCCAUGUACAUGAGGAUCACCCAUGUGUGGCAGGUAGGUCGCGAGCUAUACC [Exclusion Arginine B GF8]	136 nM	265 nM	281 nM	312 nM	228 nM
UGUCAGCGAAAGUUGACAUGUCUUACCGGUCGAGGACCGGUACGGCCGCCACUCGAUCUCUCGCACAUGAGGAUCACCCAUGUCG [SS Tryp A #17]	12.8 nM		12.8 nM		15.4 nM
GUUAUAUUAAUUGAUACCAGCGAGAAAACAUGAGGAUCACCCAUGUUCGCCCAUGUUAAGCGCCCUUGGCAGCAAUUUUAUUAGC [AstrosExyTheB#2]	32.1 nM			37.5 nM	44.3 nM
AAAAUAAUGGCGGCCGCCACUAACUCAUAUACAUCAUGUACAUGAGGAUCACCCAUGUAGGUGUAUAGGACCGGGCCAUAAUUAA [39MS split4]	18.3 nM		18.8 nM		22.2 nM
GGAUAGGACACGGCCGCCACUACCUAGGAUACUAGCAACAUUUGGGUACGUGAGGAUCACCCACGUAGGACCGGGUGUCCUAUCG	15.2 nM		14.5 nM	20.4 nM	19.1 nM
AAUAAUAUGAGGAUCACCCAUAUAAAAGAUACCAGAGUGAUGAUCCUCCCUUGGCAGCUUAACGCUGAUUGAUUACAAUCAGCGA	68.7 nM	47.5 nM	234 nM	25.5 nM	85 nM

Sequence	apparent KD of MS2 coat protein (input ligand: arginine 13.2 mM)	apparent KD of MS2 coat protein (input ligand: none)	apparent KD of MS2 coat protein [1]	apparent KD of MS2 coat protein [2]	apparent KD of MS2 coat protein [3]
CGUGGUGGGACGGAUACCAGCCACCGCGGCAACGCAACAUGAGGAUCACCCAUGUUGGGUGGCCCUUGGCAGCUGUCCUGCGGCG [#1 Same State - Theophylline B Attempt #26 (HarryS)]	9.91 nM			11.4 nM	15 nM
GCCAAAAUACCCGAUACCAGUAUUAAUAGCACAACCUCACACAUGAGGAUCACCCAUGUAUACCCUUGGCAGCGGCCUAACAUAA [theeternabot_exclusion_MS2_Theo_B_49]	30.5 nM			36.9 nM	55.3 nM
ACAUUUAACUGAAGGAGCGUGAUAUACAUGAGGAUCACCCAUGUGUCUUUCAUGAAUAAUUCACAGGUAGGUCGCAGACUAAUGA [JR_ExcArginiB_Sub008]	40.4 nM	36.1 nM	45.4 nM	37.6 nM	50.3 nM
CCGUAGCUAGGAAGGAGCGCAUACUUCACAUGAGGAUCACCCAUGUCGAGACGUGAGUCAGUGCAGGUAGGUCGCCUAGCUAUGG [Same State - Arginine B (Freestyle 28)]	23.5 nM	15.5 nM	30.5 nM	15.7 nM	26.4 nM
AUCGCACCUGGUGAUACCAGCGUUUGCUCGCGACAUGAGGAUCACCCAUGUGGCCAGUGAUGCCCUUGGCAGCAUGGUCGGUGCA [Same State - Theophylline B (Freestyle 27)]	75.5 nM			314 nM	309 nM
CCCAAGCCAGCUGAUACCAGUGACGUGGUCAGAAUGUGCGACAUGAGGAUCACCCAUGUACACCCUUGGCAGCAGUAGAACGGUU [theeternabot_exclusion_MS2_Theo_B_47]	13.6 nM			14.9 nM	18.9 nM
GACAUAUGCUAUGCGCAGGCUACCCUCAGCCGAGGACCGGUACGGCCGCCACUCGUACUACCACAUGAGGAUCACCCAUGUUAUC [theeternabot_exclusion_MS2_Trp_A_29]	20.1 nM		23.9 nM		28.4 nM
UUCAGACAUGAGGAUCACCCAUGUACUGAAGGAGCGGAUAAAUAUCCAGGUAGGUCGCAGUAUUGAGGGUCUACUUCCAGUCUUU [Reoruser]	8.42 nM	9.48 nM	9.47 nM	9.82 nM	11.9 nM
AUAUAUACAUGAGGAUCACCCAUGUUAUUUCGAGGACCGGUACGGCCGCCACUCGAUAGAGUAGAAGUAAAUUUUGAUUCAUGUA [JR_SSTryptoA_Sub009]	17.9 nM		23.5 nM		27 nM
ACAUGAGGAUCACCCAUGUUAAACAGGGUGCGAGGACCGGUACGGCCGCCACUCGGACAUUAUUACGAGUGAAUGGCAACGAUGU [#12 Exclusion Tryptophan A]	26.5 nM		24.4 nM		24.1 nM
ACAUGAAGAACAGCGGUGGGCGCGCUCGAUACCAGUACUUUGAAAUACCCUUGGCAGCGACAUGAGGAUCACCCAUGUGAGAUGA [XTheo A #3]	13 nM	16.6 nM	49.5 nM	15.7 nM	25.6 nM
ACACAUGAGGAUCACCCAUGUGCGCUGGAAGGAGCGCAGAAUCAUGCAGGUAGGUCGCCAGUGCCCUUCGAUAAAGGGAAAAGAG [Erbienes]	42.4 nM	97.4 nM	106 nM	69.1 nM	72 nM
UAAUCUGGUCUUCGAUAGGUGAUCCUCAAACGAGGACCGGUACGGCCGCCACUCGAUAACAUGAGGAUCACCCAUGUACGAGUGA [|T'-M'-Trp-Ms2|_Design16b]	52.8 nM	134 nM	205 nM	119 nM	155 nM
ACAUGUUGGUGGUAUCUACGAAGGCGGAAACGAGGACCGGUACGGCCGCCACUCGGCGACAUGAGGAUCACCCAUGUGGUUAAAA [Exclusion - Tryptophan A (Freestyle 5)]	28.8 nM		254 nM		96.9 nM
GCGGUGGGUCAAAAGUAAUAGAAUUCUGAAGGAGCGUGAUGAAACACAGGUAGGUCGCAGGAACAUGAGGAUCACCCAUGUACGG [Same State Arginine A GF21]	34.4 nM	34 nM	37.5 nM	35.7 nM	49 nM
AGUAGCUGCCGAAGGAGCGCCGUGUUCCUACAUGAGGAUCACCCAUGUAGCGUUGGGUUACGGCAGGUAGGUCGCGGCGGAUAGG [Same State - Arginine B / B]	30 nM	34.3 nM	73.8 nM	119 nM	119 nM
ACGACGCAUACAGAUACCAGUAGCCGAGAAACAUGAGGAUCACCCAUGUCGAGCGACAACUGCCCUUGGCAGCUGUAUGCGUCAG [SSTheo B #12]	8.02 nM			8.02 nM	10.3 nM
AAAGAACAUGAGGAUCACCCAUGUACCGAAGGAGCGGCGAAGAAGCCAGGUAGGUCGCGGAACAUGAAGCGAUUAAGAAUUAAUU	21.5 nM	19.3 nM	21 nM	20.4 nM	25.7 nM
